10 molecules from paper doi:10.1101/375832, “A Ubiquitin-Binding Domain that Does Not Bind Ubiquitin” (bioRxiv, 2018) can be followed below.

Numbering of substitutions follows the chain as printed.

Common to all, as to settings: both partners purified
The target of experiment [1] is T1, KAP1 RBCC (S33-K434), purified (human, UniProt Q13263 33-434).
T1 construct: KAP1 (TRIM28), human, residues S33-K434, RBCC domain; also called KAP1 S33-K434; Fragment 1; source: E. coli BL-21 CodonPlus (DE3)-RP, purified (Ni-NTA, Mono Q)
Put plainly: co-IP; purified SMARCAD1 fragments (CUE1,2, CUE1) and KAP1 RBCC, 9.6μg of each in a 240μL binding reaction, 1 hour at 4°C; immunoprecipitated with anti-FLAG M2 affinity gel for 3 hours at 4°C.

Experiment [2] addresses T2, KAP1 RBCC (S33-K434) L376A (human, UniProt Q13263 33-434, L376A).
T2 construct: KAP1 (TRIM28), human, RBCC fragment S33-K434; source: E. coli, purified; construct generated by GenScript
The description is as above.

Experiment [3] has as its target T3, KAP1 RBCC (S33-K434) V380A (human, UniProt Q13263 33-434, V380A).
T3 construct: KAP1 (TRIM28), human, RBCC fragment S33-K434; source: E. coli, purified; construct generated by GenScript
The experiment is described as above.

Experiment [4] deals with T4, KAP1 RBCC (S33-K434) I379A (human, UniProt Q13263 33-434, I379A).
T4 construct: KAP1 (TRIM28), human, RBCC fragment S33-K434; source: E. coli, purified; construct generated by GenScript
The experiment is described as above.

Experiment [5] concerns the target T5, KAP1 RBCC (S33-K434) E343A (human, UniProt Q13263 33-434, E343A).
T5 construct: KAP1 (TRIM28), human, RBCC fragment S33-K434; source: E. coli, purified; construct generated by GenScript
Described as above.

Experiment [6] deals with T6, KAP1 RBCC (S33-K434) M335A (human, UniProt Q13263 33-434, M335A).
T6 construct: KAP1 (TRIM28), human, RBCC fragment S33-K434; source: E. coli, purified; construct generated by GenScript
Described as above.

Experiment [7] has as its target T7, FLAG-SMARCAD1, full-length, wild type, recombinant from E. coli (human, UniProt Q9H4L7 1-1026).
T7 construct: SMARCAD1, human, full-length; Cloned in pET28a-SUMO; source: E. coli BL-21 CodonPlus (DE3)-RIL, purified (HisTrap, Heparin, ProSwift SAX-1S)
T7 sequence (looked up): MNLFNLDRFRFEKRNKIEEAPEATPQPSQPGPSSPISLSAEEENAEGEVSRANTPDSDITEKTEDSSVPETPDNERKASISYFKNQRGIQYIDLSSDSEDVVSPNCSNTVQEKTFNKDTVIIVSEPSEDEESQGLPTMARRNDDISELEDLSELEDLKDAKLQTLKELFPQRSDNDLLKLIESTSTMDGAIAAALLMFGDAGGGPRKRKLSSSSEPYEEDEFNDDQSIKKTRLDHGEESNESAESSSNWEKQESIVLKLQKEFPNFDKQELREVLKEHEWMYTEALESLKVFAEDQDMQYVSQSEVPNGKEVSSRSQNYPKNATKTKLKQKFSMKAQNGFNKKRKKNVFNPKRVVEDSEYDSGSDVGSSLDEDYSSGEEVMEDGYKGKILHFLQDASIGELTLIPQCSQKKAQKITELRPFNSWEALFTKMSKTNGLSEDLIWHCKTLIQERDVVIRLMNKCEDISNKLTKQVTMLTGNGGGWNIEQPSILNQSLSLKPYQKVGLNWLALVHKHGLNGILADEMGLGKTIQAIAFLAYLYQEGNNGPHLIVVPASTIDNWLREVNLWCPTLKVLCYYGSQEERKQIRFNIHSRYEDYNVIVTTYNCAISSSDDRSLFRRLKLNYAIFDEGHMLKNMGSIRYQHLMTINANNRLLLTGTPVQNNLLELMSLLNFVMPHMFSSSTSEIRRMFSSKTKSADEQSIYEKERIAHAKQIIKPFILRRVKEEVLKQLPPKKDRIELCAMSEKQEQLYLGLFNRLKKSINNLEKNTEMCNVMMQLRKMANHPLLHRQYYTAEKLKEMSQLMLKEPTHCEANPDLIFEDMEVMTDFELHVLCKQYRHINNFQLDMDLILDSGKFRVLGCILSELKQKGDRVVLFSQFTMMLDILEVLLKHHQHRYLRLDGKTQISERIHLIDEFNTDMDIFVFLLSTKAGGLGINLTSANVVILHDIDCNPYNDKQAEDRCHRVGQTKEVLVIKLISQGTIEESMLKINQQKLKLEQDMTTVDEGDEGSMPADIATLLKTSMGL
The experiment is described as follows: co-IP; purified full-length SMARCAD1 and KAP1 from E. coli, 7μg of each in 280μL SK binding buffer, 200mM NaCl, 4°C; immunoprecipitated overnight with anti-FLAG M2 affinity gel.

T6 sequence (Q13263 33-434 M335A): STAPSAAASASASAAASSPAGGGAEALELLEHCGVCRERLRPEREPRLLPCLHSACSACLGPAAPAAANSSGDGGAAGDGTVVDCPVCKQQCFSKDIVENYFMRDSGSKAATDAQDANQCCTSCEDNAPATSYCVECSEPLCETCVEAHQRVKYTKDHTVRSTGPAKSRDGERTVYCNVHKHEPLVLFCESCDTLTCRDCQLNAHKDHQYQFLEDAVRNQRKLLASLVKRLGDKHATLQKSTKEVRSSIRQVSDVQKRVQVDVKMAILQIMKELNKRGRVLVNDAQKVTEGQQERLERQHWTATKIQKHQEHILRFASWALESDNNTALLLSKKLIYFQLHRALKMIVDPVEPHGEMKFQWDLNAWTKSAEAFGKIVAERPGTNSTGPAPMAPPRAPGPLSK
T4 sequence (Q13263 33-434 I379A): as the sequence (Q13263 33-434 M335A) above, with A303M, I347A counted along it
T3 sequence (Q13263 33-434 V380A): as the sequence (Q13263 33-434 M335A) above, with A303M, V348A counted along it
T5 sequence (Q13263 33-434 E343A): as the sequence (Q13263 33-434 M335A) above, with A303M, E311A counted along it
T2 sequence (Q13263 33-434 L376A): as the sequence (Q13263 33-434 M335A) above, with A303M, L344A counted along it

B1: SMARCAD1 CUE1 fragment (S95-E237), wild type (domain or fragment, human, UniProt Q9H4L7 95-237, looked up)
chain: SSDSEDVVSPNCSNTVQEKTFNKDTVIIVSEPSEDEESQGLPTMARRNDDISELEDLSELEDLKDAKLQTLKELFPQRSDNDLLKLIESTSTMDGAIAAALLMFGDAGGGPRKRKLSSSSEPYEEDEFNDDQSIKKTRLDHGE
notes: SMARCAD1, human, residues S95-E237 spanning only the first CUE domain; also called wild type CUE1 fragment; source: E. coli BL-21 CodonPlus (DE3)-RIL, purified (Ni-NTA, Mono Q if required)
Regarding B1, the binding result in experiment [1] is on record as “binds”.

B2: FLAG-tagged SMARCAD1 CUE1,2 fragment (S95-N347), wild type (domain or fragment, human, UniProt Q9H4L7 95-347, looked up)
chain: SSDSEDVVSPNCSNTVQEKTFNKDTVIIVSEPSEDEESQGLPTMARRNDDISELEDLSELEDLKDAKLQTLKELFPQRSDNDLLKLIESTSTMDGAIAAALLMFGDAGGGPRKRKLSSSSEPYEEDEFNDDQSIKKTRLDHGEESNESAESSSNWEKQESIVLKLQKEFPNFDKQELREVLKEHEWMYTEALESLKVFAEDQDMQYVSQSEVPNGKEVSSRSQNYPKNATKTKLKQKFSMKAQNGFNKKRKKN
notes: SMARCAD1, human, residues S95-N347 encompassing both CUE domains; source: E. coli BL-21 CodonPlus (DE3)-RIL, purified (Ni-NTA, Mono Q if required)
Regarding B2, the binding result in experiment [2], in experiment [3], in experiment [4], in experiment [5], in experiment [1] and in experiment [6] was “binds” each time.

B3: FLAG-tagged SMARCAD1 CUE1,2 fragment E167A (domain or fragment, human, UniProt Q9H4L7 95-347, looked up)
chain: B2 chain with E73A
notes: SMARCAD1, human, CUE1,2 fragment S95-N347; source: E. coli, purified; construct generated by GenScript
For the molecule B3, the binding result in experiment [1] was “binds”.

B4: FLAG-tagged SMARCAD1 CUE1,2 fragment Q171A (domain or fragment, human, UniProt Q9H4L7 95-347, looked up)
chain: B2 chain with Q77A
notes: as for B3
Turning to B4, the binding result in experiment [1] is reported as “binds”.

B5: FLAG-tagged SMARCAD1 CUE1,2 fragment D188A (domain or fragment, human, UniProt Q9H4L7 95-347, looked up)
chain: B2 chain with D94A
notes: as for B3
Regarding B5, in experiment [1], the binding result is given as “binds”.

B6: FLAG-tagged SMARCAD1 CUE1,2 fragment L195A (domain or fragment, human, UniProt Q9H4L7 95-347, looked up)
chain: B2 chain with L101A
notes: as for B3
Turning to B6, the binding result in experiment [1] was “binds”.

B7: FLAG-tagged SMARCAD1 CUE1,2 fragment P170A (domain or fragment, human, UniProt Q9H4L7 95-347, looked up)
chain: B2 chain with P76A
notes: as for B3
On to B7, for which the binding result in experiment [1] is reported as “binds”.

B8: FLAG-tagged SMARCAD1 CUE1,2 fragment L196A (domain or fragment, human, UniProt Q9H4L7 95-347, looked up)
chain: B2 chain with L102A
notes: as for B3
Consider B8, for which the binding result in experiment [1] is “binds”.

B9: KAP1, full-length, recombinant from E. coli (HA-KAP1) (natural protein, human, UniProt Q13263 1-835, looked up)
chain: MAASAAAASAAAASAASGSPGPGEGSAGGEKRSTAPSAAASASASAAASSPAGGGAEALELLEHCGVCRERLRPEREPRLLPCLHSACSACLGPAAPAAANSSGDGGAAGDGTVVDCPVCKQQCFSKDIVENYFMRDSGSKAATDAQDANQCCTSCEDNAPATSYCVECSEPLCETCVEAHQRVKYTKDHTVRSTGPAKSRDGERTVYCNVHKHEPLVLFCESCDTLTCRDCQLNAHKDHQYQFLEDAVRNQRKLLASLVKRLGDKHATLQKSTKEVRSSIRQVSDVQKRVQVDVKMAILQIMKELNKRGRVLVNDAQKVTEGQQERLERQHWTMTKIQKHQEHILRFASWALESDNNTALLLSKKLIYFQLHRALKMIVDPVEPHGEMKFQWDLNAWTKSAEAFGKIVAERPGTNSTGPAPMAPPRAPGPLSKQGSGSSQPMEVQEGYGFGSGDDPYSSAEPHVSGVKRSRSGEGEVSGLMRKVPRVSLERLDLDLTADSQPPVFKVFPGSTTEDYNLIVIERGAAAAATGQPGTAPAGTPGAPPLAGMAIVKEEETEAAIGAPPTATEGPETKPVLMALAEGPGAEGPRLASPSGSTSSGLEVVAPEGTSAPGGGPGTLDDSATICRVCQKPGDLVMCNQCEFCFHLDCHLPALQDVPGEEWSCSLCHVLPDLKEEDGSLSLDGADSTGVVAKLSPANQRKCERVLLALFCHEPCRPLHQLATDSTFSLDQPGGTLDLTLIRARLQEKLSPPYSSPQEFAQDVGRMFKQFNKLTEDKADVQSIIGLQRFFETRMNEAFGDTKFSAVLVEPPPMSLPGAGLSSQELSGGPGDGP
notes: KAP1 (TRIM28), human, full-length; also called TRIM28; TIF1β; source: E. coli BL-21 CodonPlus (DE3)-RP, purified (HisTrap, Heparin, Sephacryl S-400 gel filtration)
Regarding B9, in experiment [7], the binding result is given as “binds”.

B10: FLAG-tagged SMARCAD1 CUE1,2 fragment Δ200-230 (domain or fragment, human, UniProt Q9H4L7 95-347, looked up)
chain: SSDSEDVVSPNCSNTVQEKTFNKDTVIIVSEPSEDEESQGLPTMARRNDDISELEDLSELEDLKDAKLQTLKELFPQRSDNDLLKLIESTSTMDGAIAAALLMFGTRLDHGEESNESAESSSNWEKQESIVLKLQKEFPNFDKQELREVLKEHEWMYTEALESLKVFAEDQDMQYVSQSEVPNGKEVSSRSQNYPKNATKTKLKQKFSMKAQNGFNKKRKKN
notes: SMARCAD1, human, CUE1,2 fragment S95-N347 with residues 200-230 deleted; source: E. coli, purified; construct generated by GenScript
As for B10, the binding result in experiment [1] is reported as “binds”.
